Experimental data: PMC3575409, “Identification of a Novel Protein-Protein Interaction Motif Mediating Interaction of GPCR-Associated Sorting Proteins with G Protein-Coupled Receptors” (PLoS ONE, 2013)

Key:
[1] = biological target: GST-fused C-tail of the β1 adrenergic receptor (residues 373–477); assay: pull-down; competition: synthetic peptide (1 to 250 µM, or 150 µM) against [35S]-labelled GASPs for GST-fused C-tails; the peptide and the C-tail
[2] = biological target: the four receptor C-tails (ADRB1, M1, CALCR and TXA2); assay: as above
[3] = biological target: GST-fused C-tail of the insulin growth factor I receptor (residues 1268–1367); assay: pull-down; GST-fused receptor C-tails immobilized on glutathione-Sepharose beads, incubated with [35S]-labelled in vitro translated GASPs 1 h at 4°C; 20 mM Tris-HCl pH 7.4, 150 mM NaCl, 1 mM EDTA, 1 mM DTT, 10% glycerol, 1% Triton X-100; Phosphor-imager quantification
Chain of GST-fused C-tail of the insulin growth factor I receptor (residues 1268–1367) (P08069 1268-1367): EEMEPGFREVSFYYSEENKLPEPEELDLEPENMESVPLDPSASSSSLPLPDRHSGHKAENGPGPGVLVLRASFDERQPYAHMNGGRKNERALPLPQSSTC

[4] = biological target: T1, GST-fused C-tail of the calcitonin receptor (residues 407–490); assay: as above
T1 sequence (P30988 whole entry, species assumed, looked up): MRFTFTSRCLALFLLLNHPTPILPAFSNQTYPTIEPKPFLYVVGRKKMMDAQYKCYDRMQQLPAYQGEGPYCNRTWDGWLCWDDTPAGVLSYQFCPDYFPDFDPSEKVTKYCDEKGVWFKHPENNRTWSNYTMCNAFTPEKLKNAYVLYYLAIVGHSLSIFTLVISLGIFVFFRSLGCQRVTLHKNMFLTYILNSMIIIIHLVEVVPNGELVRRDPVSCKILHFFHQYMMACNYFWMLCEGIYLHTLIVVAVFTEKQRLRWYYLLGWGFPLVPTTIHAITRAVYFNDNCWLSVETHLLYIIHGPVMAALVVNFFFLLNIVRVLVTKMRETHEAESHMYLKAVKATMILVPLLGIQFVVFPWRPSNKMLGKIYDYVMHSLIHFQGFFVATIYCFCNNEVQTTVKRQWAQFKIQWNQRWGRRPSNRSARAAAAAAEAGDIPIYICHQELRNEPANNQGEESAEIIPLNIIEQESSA

[5] = biological target: GST-fused C-tail of the muscarinic M1 acetylcholine receptor (residues 414–460); assay: as above
[6] = biological target: GST-fused C-tail of the β1 adrenergic receptor (residues 373–477); assay: as above
[7] = biological target: GST-fused C-tail of the δ-opioid receptor (residues 314–372); assay: as above
[8] = biological target: GST-fused C-tail of the histamine 2 receptor (residues 284–349); assay: as above
Chain of GST-fused C-tail of the histamine 2 receptor (residues 284–349) (P25021 284-349): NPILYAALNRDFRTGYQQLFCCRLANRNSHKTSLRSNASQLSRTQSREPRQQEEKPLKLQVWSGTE

[9] = biological target: GST-fused C-tail of the α isoform of the thromboxane A2 receptor (residues 304–343); assay: as above
free GST = assay: as above
[10] = biological target: GST-fused C-tail of the type III transforming growth factor β receptor (residues 805–849); assay: as above
Chain of GST-fused C-tail of the type III transforming growth factor β receptor (residues 805–849) (Q03167 805-849): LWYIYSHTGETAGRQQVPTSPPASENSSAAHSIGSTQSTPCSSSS

[11] = biological target: GST-fused C-tail of the β1 adrenergic receptor (residues 373–477); assay: pull-down; data not shown; GST-ADRB1 C-tail with GASP-1 fragment 924–1395
[12] = biological target: all three receptor C-tails (ADRB1, M1 and CALCR); assay: pull-down; GST-fused receptor C-tails immobilized on glutathione-Sepharose beads, incubated with [35S]-labelled in vitro translated GASPs 1 h at 4°C; 20 mM Tris-HCl pH 7.4, 150 mM NaCl, 1 mM EDTA, 1 mM DTT, 10% glycerol, 1% Triton X-100; Phosphor-imager quantification

B1: GASP peptide (peptide)
peptide: RVKQEPRFEEEVIIGSWFWAEKEA
[1]
  percent inhibition of GASP-2 binding at 100 µM peptide: 65%
  percent inhibition of GASP-2 binding at 250 µM peptide: 76%
[2]
  percent of GASP-1, -2 and -7 retained with 150 µM GASP peptide, of the control without peptide: 6 to 35 % of control

B2: GASP-6 (natural protein)
chain: MGYARKVGWVTAGLVIGAGACYCIYRLTRGRKQNKEKMAEGGSGDVDDAGDCSGARYNDWSDDDDDSNESKSIVWYPPWARIGTEAGTRARARARARATRARRAVQKRASPNSDDTVLSPQELQKVLCLVEMSEKPYILEAALIALGNNAAYAFNRDIIRDLGGLPIVAKILNTRDPIVKEKALIVLNNLSVNAENQRRLKVYMNQVCDDTITSRLNSSVQLAGLRLLTNMTVTNEYQHMLANSISDFFRLFSAGNEETKLQVLKLLLNLAENPAMTRELLRAQVPSSLGSLFNKKENKEVILKLLVIFENINDNFKWEENEPTQNQFGEGSLFFFLKEFQVCADKVLGIESHHDFLVKVKVGKFMAKLAEHMFPKSQE
modifications: [35S]-methionine labelled
[3]
  percent of GASP input retained (% of GASP input): < 1
[4]
  percent of GASP input retained (% of GASP input): 2
[5]
  percent of GASP input retained (% of GASP input): 2
[6]
  percent of GASP input retained (% of GASP input): 2
[7]
  percent of GASP input retained (% of GASP input): 2
[8]
  percent of GASP input retained (% of GASP input): 2
[9]
  percent of GASP input retained (% of GASP input): 2
Free GST
  percent of GASP input retained (% of GASP input): < 1
[10]
  percent of GASP input retained (% of GASP input): < 1

B3: GASP-1 truncated mutant 1025–1395 (conserved C-terminal domain) (domain or fragment)
chain: ICRSTCSVEQEPDPSRRPQSWEEVTVQFKPGPWGRVGFPSISPFRFPKEAASLFCEMFGGKPRNMVLSPEGEDQESLLQPDQPSPEFPFQYDPSYRSVQEIREHLRAKESTEPESSSCNCIQCELKIGSEEFEELLLLMEKIRDPFIHEISKIAMGMRSASQFTRDFIRDSGVVSLIETLLNYPSSRVRTSFLENMIRMAPPYPNLNIIQTYICKVCEETLAYSVDSPEQLSGIRMIRHLTTTTDYHTLVANYMSGFLSLLATGNAKTRFHVLKMLLNLSENLFMTKELLSAEAVSEFIGLFNREETNDNIQIVLAIFENIGNNIKKETVFSDDDFNIEPLISAFHKVEKFAKELQGKTDNQNDPEGDQEN
modifications: [35S]-methionine labelled
[7]
  percent of the full-length GASP-1 interaction (% of the full-length GASP-1 interaction): 25

B4: GASP-1 truncated mutant 380–1073 (central domain), in vitro translated (domain or fragment)
chain: MTKEEAKTKARARAKQEARSEEEALIGTWFWATDESSMADEASIESSLQVEDESIIGSWFWTEEEASMGTGASSKSRPRTDGERIGDSLFGAREKTSMKTGAEATSESILAADDEQVIIGSWFWAGEEVNQEAEEETIFGSWFWVIDAASVESGVGVSCESRTRSEEEEVIGPWFWSGEQVDIEAGIGEEARPGAEEETIFGSWFWAENQTYMDCRAETSCDTMQGAEEEEPIIGSWFWTRVEACVEGDVNSKSSLEDKEEAMIPCFGAKEEVSMKHGTGVRCRFMAGAEETNNKSCFWAEKEPCMYPAGGGSWKSRPEEEEDIVNSWFWSRKYTKPEAIIGSWLWATEESNIDGTGEKAKLLTEEETIINSWFWKEDEAISEATDREESRPEAEEGDIIGSWFWAGEEDRLEPAAETREEDRLAAEKEGIVGSWFGAREETIRREAGSCSKSSPKAEEEEVIIGSWFWEEEASPEAVAGVGFESKPGTEEEEITVGSWFWPEEEASIQAGSQAVEEMESETEEETIFGSWFWDGKEVSEEAGPCCVSKPEDDEEMIVESWFWSRDKAIKETGTVATCESKPENEEGAIVGSWFEAEDEVDNRTDNGSNCGSRTLADEDEAIVGSWFWAGDEAHFESNPSPVFRAICRSTCSVEQEPDPSRRPQSWEEVTVQFKPGPWGRVGFPSISPFRFPKE
modifications: [35S]-methionine labelled
[5]
  percent of the full-length GASP-1 interaction (% of the full-length GASP-1 interaction): 70
[6]
  percent of the full-length GASP-1 interaction (% of the full-length GASP-1 interaction): 70
[7]
  percent of the full-length GASP-1 interaction (% of the full-length GASP-1 interaction): 30

B5: GASP-1 fragment corresponding to amino acids 924 to 1395 (domain or fragment)
chain: CCVSKPEDDEEMIVESWFWSRDKAIKETGTVATCESKPENEEGAIVGSWFEAEDEVDNRTDNGSNCGSRTLADEDEAIVGSWFWAGDEAHFESNPSPVFRAICRSTCSVEQEPDPSRRPQSWEEVTVQFKPGPWGRVGFPSISPFRFPKEAASLFCEMFGGKPRNMVLSPEGEDQESLLQPDQPSPEFPFQYDPSYRSVQEIREHLRAKESTEPESSSCNCIQCELKIGSEEFEELLLLMEKIRDPFIHEISKIAMGMRSASQFTRDFIRDSGVVSLIETLLNYPSSRVRTSFLENMIRMAPPYPNLNIIQTYICKVCEETLAYSVDSPEQLSGIRMIRHLTTTTDYHTLVANYMSGFLSLLATGNAKTRFHVLKMLLNLSENLFMTKELLSAEAVSEFIGLFNREETNDNIQIVLAIFENIGNNIKKETVFSDDDFNIEPLISAFHKVEKFAKELQGKTDNQNDPEGDQEN
modifications: [35S]-methionine labelled
[11]
  percent of input retained (% of the input): 5

B6: GASP-2 truncated mutant 377–838 (domain or fragment)
chain: QEPRFEEEVIIGSWFWAEKEASLEGGASAICESEPGTEEGAIGGSAYWAEEKSSLGAVAREEAKPESEEEAIFGSWFWDRDEACFDLNPCPVYKVSDRFRDAAEELNASSRPQTWDEVTVEFKPGLFHGVGFRSTSPFGIPEEASEMLEAKPKNLELSPEGEEQESLLQPDQPSPEFTFQYDPSYRSVREIREHLRARESAESESWSCSCIQCELKIGSEEFEEFLLLMDKIRDPFIHEISKIAMGMRSASQFTRDFIRDSGVVSLIETLLNYPSSRVRTSFLENMIHMAPPYPNLNMIETFICQVCEETLAHSVDSLEQLTGIRMLRHLTMTIDYHTLIANYMSGFLSLLTTANARTKFHVLKMLLNLSENPAVAKKLFSAKALSIFVGLFNIEETNDNIQIVIKMFQNISNIIKSGKMSLIDDDFSLEPLISAFREFEELAKQLQAQIDNQNDPEVGQQS
modifications: [35S]-methionine labelled
[12]
  percent of the full-length GASP-2 interaction (% of the full-length GASP-2 interaction): 30 to 60
